Where a chain is given by its changes, count along the chain named. Where two headings read alike, the source gives them in different places.
Experiments:
[1] = target: T1, human properdin (human, UniProt P27918 28-469); assay: cell-based or functional assay
[2] = target: T1, human properdin; assay: cell-based or functional assay; remark: listed apart in the source
[3] = target: T1, human properdin; assay: cell-based or functional assay; remark: listed apart in the source
[4] = target: T1, human properdin; assay: cell-based or functional assay; remark: listed apart in the source
[5] = target: T1, human properdin; assay: ELISA, human properdin coated on plate
Protocol: (§1) Polystyrene microtiter plates were coated with human (2.0 μg/50 μl per well) properdin in phosphate buffered saline (PBS) overnight at 4° C. After aspirating the properdin solution, the wells were blocked with PBS containing 1% bovine serum albumin (BSA) (Sigma-Aldrich, St. Louis, Mo.) for 2 hours at room temperature. Wells without peptide or properdin coating served as background controls. Aliquots of the test antibody in blocking solution were added to the properdin coated wells and allowed to incubate for 1 hour to allow binding to occur. Following a 1 hour incubation at room temperature, the plate was rinsed with PBS five times and incubated with 1:2000 diluted anti-properdin polyclonal antibody.

[6] = target: T1, human properdin; assay: ELISA, human properdin coated on the plate, OD 450 nm
Protocol: as §1

[7] = target: T1, human properdin; assay: ELISA, properdin coated on the plate, OD 450 nm
[8] = target: T1, human properdin; assay: cell-based or functional assay; remark: listed apart in the source
[9] = target: T1, human properdin; assay: ELISA, properdin coated on the plate, OD 450 nm; remark: listed apart in the source
[10] = target: T1, human properdin; assay: cell-based or functional assay; remark: listed apart in the source

T1 sequence (P27918 28-469 limits assumed): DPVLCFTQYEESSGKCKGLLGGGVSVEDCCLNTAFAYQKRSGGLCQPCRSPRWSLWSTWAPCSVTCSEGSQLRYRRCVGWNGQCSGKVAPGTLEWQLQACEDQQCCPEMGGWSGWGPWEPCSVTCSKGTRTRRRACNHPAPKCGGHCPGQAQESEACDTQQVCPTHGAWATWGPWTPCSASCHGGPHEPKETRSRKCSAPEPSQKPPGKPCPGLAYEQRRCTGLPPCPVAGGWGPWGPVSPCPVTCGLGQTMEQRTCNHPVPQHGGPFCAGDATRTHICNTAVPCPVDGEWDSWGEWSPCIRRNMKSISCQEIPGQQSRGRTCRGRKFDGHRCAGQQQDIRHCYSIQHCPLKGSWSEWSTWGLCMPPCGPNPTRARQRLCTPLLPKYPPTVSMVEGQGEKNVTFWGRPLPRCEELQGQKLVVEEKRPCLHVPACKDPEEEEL

B1: NMT15 (antibody, V domains shown)
VH: QVQLVQSAPEVAKPGTSVKMSCKASGYIFTNYPIHWVKQAPGQGLEWIGFIDPGGGYDEPDERFRDRATLTADKSTSTAYMELSSLRSEDTAIYYCARRGGGYYLDYWGQGTLVTVSS
VL: DIQMTQSPSSLSASLGDRVTITCRASQDISFFLNWYQQKPDGTVKLLIYYTSRYHSGVPSRFSGSGSGTDFTLTISSLQPEDFATYFCQHGNTLPWTFGQGTKLEIK
Question: How did the “MAC (µg/Ml); inhibition of MAC formation” value [1] turn out when B1 was run?
Answer: 1 µg/mL

Question: What about the “Properdin (µg/mL); inhibition of properdin deposition” value (“Properdin (µg/mL); inhibition” below) [1] of the same binder?
Answer: 2 µg/mL

Question: And the “IC50 (read off the curve): properdin deposition (AP activation on LPS, 10% normal human serum)” value [2]?
Answer: ~0.8 µg/mL

Question: And the “IC50 (read off the curve): C3b deposition (AP activation on LPS, normal human serum)” value [3]?
Answer: ~0.5 µg/mL

Question: And the “IC50 (read off the curve): properdin deposition (AP C3 convertase formation assay)” value [4]?
Answer: ~0.4 µg/mL

Question: And the “Binding Affinity” value [5]?
Answer: 270 pM

Question: And the “EC50 (read off the curve)” value [6]?
Answer: 0.2 to 0.3 nM

B2: NMT18 (antibody, V domains shown)
VH: EVQLVQSGAEVKKPGASVKVSCKASGYIFTNYPIHWVRQAPGQGLEWMGFIDPGGGYDEPDERFRDRVTMTADTSTSTAYMELSSLRSEDTAVYYCARRGGGYYLDYWGQGTTVTVSS
VL: B1 VL with L15V, D41G, G42K, T43A, V44P, F87Y, N92Q
Question: With B2 as the binder, how does the “MAC (µg/Ml); inhibition of MAC formation” value [1] read?
Answer: 9 µg/mL

Question: And the “Properdin (µg/mL); inhibition” value [1]?
Answer: 3 µg/mL

Question: What about the “IC50 (read off the curve): properdin deposition (AP activation on LPS, 10% normal human serum)” value [2] of the same binder?
Answer: ~0.9 µg/mL

Question: And the “IC50 (read off the curve): C3b deposition (AP activation on LPS, normal human serum)” value [3]?
Answer: ~0.5 µg/mL

Question: What about the “Binding Affinity” value [5] of the same binder?
Answer: 289 pM

Question: And the “EC50 (read off the curve)” value [6]?
Answer: ~0.3 nM

B3: NMT28 (antibody, V domains shown)
VH: B2 VH with T113L
VL: B1 VL with L15V, D41G, G42K, T43A, V44P, F87Y, N92Q, L104V
Question: Which results are given for B3?
Answer: IC50 (read off the curve): C3b deposition (AP C3 convertase formation assay) [4]: ~0.3 µg/mL; IC50 (read off the curve): properdin deposition (AP C3 convertase formation assay) [4]: ~0.3 µg/mL; EC50 (read off the curve) [7]: ~0.06 nM

B4: NMT17 (antibody, V domains shown)
VH: B2 VH
VL: B1 VL with L15V, D41G, G42K, T43A, V44P, F87Y, N92S
Question: Which “MAC (µg/Ml); inhibition of MAC formation” value [1] does the source give for B4 here?
Answer: 5 µg/mL

Question: What about the “Properdin (µg/mL); inhibition” value [1] of the same binder?
Answer: 4 µg/mL

Question: And the “IC50 (read off the curve): properdin deposition (AP activation on LPS, 10% normal human serum)” value [2]?
Answer: ~0.9 µg/mL

Question: And the “IC50 (read off the curve): C3b deposition (AP activation on LPS, normal human serum)” value [3]?
Answer: ~0.7 µg/mL

Question: And the “Binding Affinity” value [5]?
Answer: 283 pM

Question: And the “EC50 (read off the curve)” value [6]?
Answer: ~0.3 nM

B5: NMT31 (antibody, V domains shown)
VH: EVTLKESGPTLVKPTQTLTLTCTFSGFSLSTSGMGVGWIRQPPGKALEWLAHIWWDDVKSYNPALKSRLTITKDTSKNQVVLTMTNMDPVDTATYYCARIGDGYYSFDYWGQGTTVTVSS
VL: DIQMTQSPSSLSASVGDRVTITCRASQDVSDAVAWFQQKPGKAPKLLIYSPSYRYTGVPSRFSGSGSGTDFTFTISSLQPEDLATYYCQQHYSTPWTFGQGTKLEIK
Question: How did the “IC50 (read off the curve): C3b deposition (sheet title: LPS C3b 10% NHS)” value (“IC50 … (sheet title: LPS C3b 10% NHS)” for short) [8] turn out when B5 was run?
Answer: ~0.7 µg/mL

Question: And the “EC50 (read off the curve)” value [9]?
Answer: ~0.06 nM

B6: NMT31-101 (antibody, V domains shown)
VH: B5 VH
VL: B5 VL
Question: B6 was tested. Which “IC50 … (sheet title: LPS C3b 10% NHS)” value [10] did it give?
Answer: ~0.5 µg/mL

B7: NMT31-100 (antibody, V domains shown)
VH: B5 VH
VL: B5 VL
Question: Which “IC50 … (sheet title: LPS C3b 10% NHS)” value [10] does the source give for B7 here?
Answer: ~0.5 µg/mL

B8: NMT30 (antibody, V domains shown)
VH: B5 VH with M84I, M87V, V116L
VL: B5 VL with L83F
Question: B8 was tested. Which “IC50 … (sheet title: LPS C3b 10% NHS)” value [8] did it give?
Answer: ~0.4 µg/mL

Question: What about the “EC50 (read off the curve)” value [9] of the same binder?
Answer: ~0.04 nM

B9: NMT29 (antibody, V domains shown)
VH: B5 VH
VL: B5 VL with F36Y, F73L, L83F
Question: With B9 as the binder, how does the “IC50 … (sheet title: LPS C3b 10% NHS)” value [8] read?
Answer: ~0.9 µg/mL

Question: What about the “EC50 (read off the curve)” value [9] of the same binder?
Answer: ~0.05 nM

B10: NMT30-101 (antibody, V domains shown)
VH: B5 VH with M84I, M87V, V116L
VL: B5 VL with L83F
Question: B10 was tested. Which “IC50 … (sheet title: LPS C3b 10% NHS)” value [10] did it give?
Answer: ~0.6 µg/mL

B11: NMT30-100 (antibody, V domains shown)
VH: B5 VH with M84I, M87V, V116L
VL: B5 VL with L83F
Question: For B11, which “IC50 … (sheet title: LPS C3b 10% NHS)” value [10] is on record?
Answer: ~0.6 µg/mL

— patent US20230073274A1 (NOVELMED THERAPEUTICS, published 2023)
